Patent US20240035012A1 (WESTLAKE UNIVERSITY, published 2024)
“And” between values parts separate entries of the source, which are not always exact repeats. Identical values can stand only once.

biological target: SARS-CoV-2 spike protein (SARS-CoV-2-S) (SARS-CoV-2, UniProt P0DTC2 14-1273); test: cell-based or functional assay

| Binder | IC50, inhibition of SARS-CoV-2 pseudotyped virus (luciferase), Caco-2 cells |
| --- | --- |
| ACE2 M2-AP15-foldon (receptor) QSTIEEQAKYFLDKFNHEAEDLFYQSSLASWNYNTNITEENVQNMNNAGDKWSAFLKEQSTYAQMYPLQEIQNLTVKLQLQALQQNGSSVLSEDKSKRLNTILNTMSTIYSTGKVCNPDNPQECLLLEPGLNEIMANSLDYNERLWAWESWRSEVGKQLRPLYEEYVVLKNEMARANHYEDYGDYWRGDYEVNGVDGYDYSRGQLIEDVEHTFEEIKPLYEHLHAYVRAKLMNAYPSYISPIGCLPAHLLGDMWGRFWTNLYSLTVPFGQKPNIDVTDAMVDQAWDAQRIFKEAEKFFVSVGLPNMTQGFWEYSMLTDPGNVQKAVCHPTAWDLGKGDFRILMCTKVTMDDFLTAHHEMGHIQYDMAYAAQPFLLRNGANEGFHEAVGEIMSLSAATPKHLKSIGLLSPDFQEDNETEINFLLKQALTIVGTLPFTYMLEKWRWMVFKGEIPKDQWMKKWWEMKREIVGVVEPVPHDETYCDPASLFHVSNDYSFIRYYTRTLYQFQFQEALCQAAKHEGPLHKCDISNSTEAGQKLFNMLRLGKSEPWTLALENVVGAKNMNVRPLLNYFEPLFTWLKDQNKNSFVGWSTDWSPYADGSAPAPAPAPAPAPAPAPAPAPAPAPAPAPAPGSGYIPEAPRDGQAYVRKDGEWVLLSTFL | 0.071 µg/ml and 0.177 nM |
| ACE2 M1-AP15-foldon (receptor) QSTIEEQAKTFLDFFNIQAEDLFYQSSLASWNYNTNITEENVQNMNNAGDKWSAFLKEQSTLAQMYPLQEIQNLTVKLQLQALQQNGSSVLSEDKSKRLNTILNTMSTIYSTGKVCNPDNPQECLLLEPGLNEIMANSLDYNERLWAWESWRSEVGKQLRPLYEEYVVLKNEMARANHYEDYGDYWRGDYEVNGVDGYDYSRGQLIEDVEHTFEEIKPLYEHLHAYVRAKLMNAYPSYISPIGCLPAHLLGDMWGRFWTNLYSLTVPFGQKPNIDVTDAMVDQAWDAQRIFKEAEKFFVSVGLPNMTQGFWENSMLTDPGNVQKAVCHPTAWDLGKGDFRILMCTKVTMDDFLTAHHEMGHIQYDMAYAAQPFLLRNGANEGFHEAVGEIMSLSAATPKHLKSIGLLSPDFQEDNETEINFLLKQALTIVGTLPFTYMLEKWRWMVFKGEIPKDQWMKKWWEMKREIVGVVEPVPHDETYCDPASLFHVSNDYSFIRYYTRTLYQFQFQEALCQAAKHEGPLHKCDISNSTEAGQKLFNMLRLGKSEPWTLALENVVGAKNMNVRPLLNYFEPLFTWLKDQNKNSFVGWSTDWSPYADGSAPAPAPAPAPAPAPAPAPAPAPAPAPAPAPGSGYIPEAPRDGQAYVRKDGEWVLLSTFL | 0.202 µg/ml and 0.505 nM |
| ACE2 M5-AP15-foldon (receptor) QSTIEEQAKYFLDKFNAEAEDLFYQSSLASWNYNTNITEENVQNMNNAGDKWSAFLKEQSTYAQMYPLQEIQNLTVKLQLQALQQNGSSVLSEDKSKRLNTILNTMSTIYSTGKVCNPDNPQECLLLEPGLNEIMANSLDYNERLWAWESWRSEVGKQLRPLYEEYVVLKNEMARANHYEDYGDYWRGDYEVNGVDGYDYSRGQLIEDVEHTFEEIKPLYEHLHAYVRAKLMNAYPSYISPIGCLPAHLLGDMWGRFWTNLYSLTVPFGQKPNIDVTDAMVDQAWDAQRIFKEAEKFFVSVGLPNMTQGFWEYSMLTDPGNVQKAVCHPTAWDLGKGDFRILMCTKVTMDDFLTAHHEMGHIQYDMAYAAQPFLLRNGANEGFHEAVGEIMSLSAATPKHLKSIGLLSPDFQEDNETEINFLLKQALTIVGTLPFTYMLEKWRWMVFKGEIPKDQWMKKWWEMKREIVGVVEPVPHDETYCDPASLFHVSNDYSFIRYYTRTLYQFQFQEALCQAAKHEGPLHKCDISNSTEAGQKLFNMLRLGKSEPWTLALENVVGAKNMNVRPLLNYFEPLFTWLKDQNKNSFVGWSTDWSPYADGSAPAPAPAPAPAPAPAPAPAPAPAPAPAPAPGSGYIPEAPRDGQAYVRKDGEWVLLSTFL | 0.052 µg/ml and 0.13 nM |
| ACE2 M4-AP15-foldon (receptor) QSTIEEQAKYFLDFFNIQAEDLFYQSSLASWNYNTNITEENVQNMNNAGDKWSAFLKEQSTYAQMYPLQEIQNLTVKLQLQALQQNGSSVLSEDKSKRLNTILNTMSTIYSTGKVCNPDNPQECLLLEPGLNEIMANSLDYNERLWAWESWRSEVGKQLRPLYEEYVVLKNEMARANHYEDYGDYWRGDYEVNGVDGYDYSRGQLIEDVEHTFEEIKPLYEHLHAYVRAKLMNAYPSYISPIGCLPAHLLGDMWGRFWTNLYSLTVPFGQKPNIDVTDAMVDQAWDAQRIFKEAEKFFVSVGLPNMTQGFWEYSMLTDPGNVQKAVCHPTAWDLGKGDFRILMCTKVTMDDFLTAHHEMGHIQYDMAYAAQPFLLRNGANEGFHEAVGEIMSLSAATPKHLKSIGLLSPDFQEDNETEINFLLKQALTIVGTLPFTYMLEKWRWMVFKGEIPKDQWMKKWWEMKREIVGVVEPVPHDETYCDPASLFHVSNDYSFIRYYTRTLYQFQFQEALCQAAKHEGPLHKCDISNSTEAGQKLFNMLRLGKSEPWTLALENVVGAKNMNVRPLLNYFEPLFTWLKDQNKNSFVGWSTDWSPYADGSAPAPAPAPAPAPAPAPAPAPAPAPAPAPAPGSGYIPEAPRDGQAYVRKDGEWVLLSTFL | 0.071 µg/ml and 0.177 nM |
